In patent US20240401013:

Legend:
[1] = system: PE-Bce integrase fusion (PASTE v4; printed Bcel); test: cell_activity; conditions: PASTE v4 comparator, Hepa1c1c7; att sequences not given
[2] = system: PE-Bxb1 integrase fusion (PASTE v3; printed Bxbl); test: cell_activity; conditions: PASTE v3 comparator, Hepa1c1c7; att sequences not given

Substance	activity (% mCherry-positive cells) [1]	activity (% mCherry-positive cells) [2]
Bce att sites (PASTE v4)	0.5	
Bxb1 att sites (PASTE v3)		3.8
